Data: patent US20210284694A1 (published 2021)
Starred links: 1 amine or outer side, 2 acyl side, 3 side chain; linkers in the order of their positions; H or OH if unused. Positions of bridges follow the written chain, without caps; N, C: chain ends. Non-standard residues stand in square brackets, D forms with d. Phe(4-OMe) = COc1ccc(C[C@H](N[*:1])C(=O)[*:2])cc1; Trp(5-F) = N[C@@H](Cc1c[nH]c2ccc(F)cc12)C(=O)O; mXylylene = c1cc(C[*:1])cc(C[*:2])c1; αMeP = C[C@@]1(C(=O)O)CCCN1; Mpa = O=C(O)CCS

B1: Reagent A (peptide)
peptide: [Mpa]K(AlexaFluor647)G[Trp(5-F)][Trp(5-F)]DHY[αMeP]C-NH2
modifications: linker N-10 via mXylylene
notes: also called AlexaFluor647 (AF) tagged cyclic peptide; AF cyclic peptide
B2: Reagent B (peptide)
peptide: [Mpa]K(AlexaFluor647)[dA][Trp(5-F)][Trp(5-F)]DH[Phe(4-OMe)][αMeP]C-NH2
modifications: linker N-10 via mXylylene
notes: as for B1

Assays:
biotinylated PCSK9 [1] = target: T1, biotinylated PCSK9 (UniProt Q8NBP7 31-692, limits assumed, biotinylated); test: method of the KD not told; tracer of the Alexa FRET Standard assay
T1 construct: also called europium-labeled PCSK9

biotinylated PCSK9 [2] = target: T1, biotinylated PCSK9; test: method of the KD not told; tracer of the Alexa FRET Plus assay

T1 sequence (Q8NBP7 31-692 limits assumed): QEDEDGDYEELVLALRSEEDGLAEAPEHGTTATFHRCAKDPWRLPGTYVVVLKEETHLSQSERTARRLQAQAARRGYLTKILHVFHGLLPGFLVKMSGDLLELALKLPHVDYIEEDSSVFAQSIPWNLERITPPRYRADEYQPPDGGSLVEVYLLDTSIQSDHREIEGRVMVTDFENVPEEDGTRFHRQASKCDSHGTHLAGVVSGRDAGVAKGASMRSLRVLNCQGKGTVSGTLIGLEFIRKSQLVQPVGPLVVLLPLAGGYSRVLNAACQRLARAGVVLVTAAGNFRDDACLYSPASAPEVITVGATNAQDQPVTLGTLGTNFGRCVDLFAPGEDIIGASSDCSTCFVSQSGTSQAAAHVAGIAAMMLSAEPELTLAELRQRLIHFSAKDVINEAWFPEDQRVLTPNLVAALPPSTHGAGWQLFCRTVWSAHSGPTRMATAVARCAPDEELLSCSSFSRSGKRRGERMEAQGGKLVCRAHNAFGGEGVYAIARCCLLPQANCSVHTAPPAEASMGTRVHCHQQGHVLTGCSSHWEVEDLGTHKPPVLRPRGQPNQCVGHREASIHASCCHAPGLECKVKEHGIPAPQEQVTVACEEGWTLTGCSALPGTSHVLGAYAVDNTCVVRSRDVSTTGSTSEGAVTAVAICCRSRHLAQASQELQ

| Binder | Kd (biotinylated PCSK9 [1]) [nM] | Kd (biotinylated PCSK9 [2]) [nM] |
| --- | --- | --- |
| B1 | 83 |  |
| B2 |  | 35 |
